# IntAct's records for PubMed 28469241
# B1: Heart- and neural crest derivatives-expressed protein 2 (Mus musculus), Q61039 (parent)
# chain: MSLVGGFPHHPVVHHEGYPFAAAAAAAAAAAASRCSHEENPYFHGWLIGHPEMSPPDYSMALSYSPEYASGAAGLDHSHYGGVPPGAGPPGLGGPRPVKRRGTANRKERRRTQSINSAFAELRECIPNVPADTKLSKIKTLRLATSYIAYLMDLLAKDDQNGEAEAFKAEIKKTDVKEEKRKKELNEILKSTVSSNDKKTKGRTGWPQHVWALELKQ
# partner: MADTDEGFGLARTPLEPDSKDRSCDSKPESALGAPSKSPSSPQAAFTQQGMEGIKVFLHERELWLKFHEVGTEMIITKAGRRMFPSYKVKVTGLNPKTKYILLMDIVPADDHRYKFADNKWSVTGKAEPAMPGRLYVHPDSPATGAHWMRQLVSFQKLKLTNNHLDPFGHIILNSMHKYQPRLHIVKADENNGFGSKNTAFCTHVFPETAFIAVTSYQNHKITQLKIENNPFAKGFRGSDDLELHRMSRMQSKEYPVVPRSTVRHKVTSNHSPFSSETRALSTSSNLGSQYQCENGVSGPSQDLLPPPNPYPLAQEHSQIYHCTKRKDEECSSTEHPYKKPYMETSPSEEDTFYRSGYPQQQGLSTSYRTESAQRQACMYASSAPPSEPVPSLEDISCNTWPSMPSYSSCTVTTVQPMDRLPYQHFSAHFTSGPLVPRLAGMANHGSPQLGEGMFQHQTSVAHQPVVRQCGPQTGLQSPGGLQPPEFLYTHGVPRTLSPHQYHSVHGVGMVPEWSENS
# Variants of: B1
# Settings: with tbx5_mouse Tbx5, P70326
row,Variant,effect of a mutation on the interaction
1,MSLVGGFPHHPVVHHEGYPFAAAAAAAAAAAASRCSHEENPYFHGWLIGHPEMSPPDYSMALSYSPEYASGAAGLDHSHYGGVPPGAGPPGLGGPRPVKRRGTANRKERRRTQSINSAFAELRECIPNVPADTKLSKIKTLRLATSYIAYLMDLLAKDDQNGEAEAFKAEIKKTDVKEEKRKKELNEILKSTVSSNDKKTKVRTGWPQHVWALELKQ [G202V],decreasing interaction strength
